Measurements as given in US20200009238A1 (UNIVERSITETET I OSLO, published 2020).
Positions count from the first letter of the chain named. Numbers in names are those of the source. Values belong to the molecule of their own block, whether it stands above or below them.

Experiments:
[1] = target: MART-1 peptide on HLA-A2, on HLA-A2 positive SupT1 cells expressing Ii L17A/RRP MART-1; assay: flow cytometry; HLA-A2 positive SupT1 cells expressing Ii L17A/RRP MART-1, 10 nM sTcR, anti-His-PE
[2] = target: MART-1 peptide on HLA-A2, on HLA-A2 positive SupT1 cells expressing Iiwt MART-1; assay: flow cytometry; HLA-A2 positive SupT1 cells expressing Iiwt MART-1, 10 nM sTcR, anti-His-PE
[3] = target: HLA-A2 single-chain trimer (SCT) combined with MART-1 peptide; assay: flow cytometry; SupT1 cells expressing SCT-MART-1, 10 nM sTcR 15 min at RT, anti-His-PE
[4] = target: the molecule itself; assay: self-association (trimer); western blot of boiled and non-boiled whole cell lysates of transfected Hek cells, anti Ii M-B741
Method: Hek cells were transfected as indicated. After 24 hours, whole cell lysates (WCL) were subjected to 4-20% SDS-PAGE Tris-HEPES-SDS gels, transferred to PVDF membranes and probed with anti Ii antibody, M-B741. The samples were either boiled or non-boiled before gel loading. Ii trimers and monomers are shown. Detection of actin in the WCL was used as loading control using anti-actin antibodies.
In order to function as a chaperone for MHC II antigen presentation, Ii depends on two important features; the ability to trimerize[17] and to traffic to the endosomal pathway. The trimerization of IiRRP/L17A was analyzed by western blotting (WB).

MFI [1]: 194 MFI
percent of cells stained [1]: 21%
MFI [2]: 105 MFI
percent of cells stained [2]: 2%
MFI [3]: 37000 MFI
percent of cells stained [3]: 100%
Molecule: soluble form of DMF5 (MART-1 specific TcR)

B1: human invariant chain Iip33 wild type (other)
chain: MDDQRDLISNNEQLPMLGRRPGAPESKCSRGALYTGFSILVTLLLAGQATTAYFLYQQQGRLDKLTVTSQNLQLENLRMKLPKPPKPVSKMRMATPLLMQALPMGALPQGPMQNATKYGNMTEDHVMHLLQNADPLKVYPPLKGSFPENLRHLKNTMETIDWKVFESWMHHWLLFEMSRHSLEQKPTDAPPKESLELEDPSSGLGVTKQDLGPVPM
notes: Full length protein expressed in transfected Hek cells and analysed in whole cell lysates; also called Iiwt; Ii wt
binding result [4]: binds

B2: invariant chain double leucine mutant Ii L7A/L17A (other)
chain: B1 chain with L7A, L17A
notes: Expressed in Hek cells and analysed in lysates
binding result [4]: binds

B3: invariant chain trafficking mutant Ii RRP/L17A (other)
chain: B1 chain with Q4R, D6P, L17A
notes: Expressed in Hek cells and analysed in lysates; also called IiL17A/RRP; Ii L17A RRP
binding result [4]: binds
